Measurements from US20220306986A1, “NON-INVASIVE METHODS FOR SELECTIVELY ENRICHING PLURIPOTENT CELLS” (MEMORIAL SLOAN-KETTERING CANCER CENTER, priority 2019, published 2022).
Values belong to the molecule of their own block, whether it stands above or below them.

Tests used:
Assay type in all cases: cell-based, mouse
ESCs = assay: Colony formation assay (alkaline phosphatase staining) after pulse treatment; settings: during transient glutamine withdrawal and in the presence of exogenous glutamine; FIG. 7H, 7I
Description: For transient glutamine withdrawal (“pulse”) experiments, cells were initially plated in standard S/L medium as described above. The following day, cells were washed with PBS and then changed to experimental medium containing a 1:1 mix of glutamine-free DMEM and glutamine-free Neurobasal medium including 10% dialyzed FBS, 2-mercaptoethanol, LIF, and containing (“Ctrl”) or lacking (“Pulse”) L-glutamine as indicated. 24 hours later, cells were washed with PBS and then returned to glutamine-replete medium (“Recover”). 24 hours later, cells were subjected to either image analysis, flow cytometry, or plated for colony formation assays as indicated. For glutamine pulse experiments in human ESCs, cells were initially plated at a density of 300,000 cells/well in a tissue-culture treated polystyrene 12-well plate coated with vitronectin (Thermo Fisher Scientific, A14700) in E8 medium (Thermo Fisher Scientific, A1517001) containing 10 uM ROCK inhibitor Y-27632 (Selleck Chemicals S1049). 24 hrs after plating, medium was changed to modified E8 medium containing: DMEM high glucose without glutamine (Thermo Fisher 11960044), 10.7 mg/L Transferrin (Sigma T0665), 64 mg/L L-Ascorbic Acid (Sigma A890), 14 ug/L Sodium Selenite (Sigma S5261), 543 mg/L Sodium Bicarbonate (Research Products International 144558), 19.4 mg/L insulin (Sigma 19278), 100 ug/L bFGF (EMD Millipore GF003AF), 2 ug/L TGFβ1 (Peprotech 10021), and 2 mM L-glutamine. After 24 hrs of culture in modified E8 medium, medium was changed to modified E8 medium containing 2 mM or 0 mM L-glutamine for 24 hrs. All cells were then changed to modified E8 medium containing 2 mM L-glutamine and cultured for 24 hrs before harvest for analysis. […] For ESC colony formation assays, colonies were scored manually in a blinded fashion. For reprogramming experiments, alkaline-phosphatase colonies were scored automatically using ImageJ (NIH). Briefly, images of each well were binarized using the Default function and particles greater than 8 pixels with a circularity of 0.7-1.0 were counted.

JAK/STAT3 signaling = assay: Immunoblot of phospho-STAT3 and total STAT3; settings: ESCs expressing chimeric GCSF-responsive LIF receptor; FIG. 5A
Description: Protein lysates were extracted in 1× radioimmunoprecipitation assay buffer (Cell Signaling Technology), separated by SDS—polyacrylamide gel electrophoresis and transferred to nitrocellulose membranes (Bio-Rad). Membranes were blocked in 3% milk in Tris-buffered saline with 0.1% Tween20 (TBST) and incubated at 4° C. with primary antibodies overnight. After TBST washes the next day, membranes were incubated with horseradish peroxidase-conjugated secondary antibodies for 2 h, incubated with enhanced chemiluminescence (Thermo Fisher Scientific) and imaged with an SRX-101A X-ray Film Processor (Konica Minolta). The antibodies used (at 1:1,000 unless otherwise stated) were: Nanog (catalogue no. AF2729; R&D Systems); KLF4 (catalogue no. ab129473; Abcam), phospho-Stat3 (catalogue no. 9138; Cell Signaling Technology); Stat3 (124146, catalogue no. 9139; Cell Signaling Technology), and α-Tubulin (1:10,000, catalogue no. 79026; Sigma-Aldrich).

[1] = system: ESCs expressing the G-CSF-activated LIF receptor transgene; assay: GC-MS isotope tracing of [U-13C]glucose or [U-13C]glutamine
Description: Steady state TCA cycle metabolite measurements. Cells were seeded in standard S/L medium in 6-well plates. 24 hours later, cells were washed with PBS and changed into experimental medium containing a 1:1 mix of glutamine-free DMEM and glutamine-free Neurobasal medium including 10% dialyzed FBS, 2-mercaptoethanol, LIF, and 2 mM L-glutamine. The next day, cells were washed with PBS and subjected to the same experimental medium either with or without 2 mM glutamine. 8 hours later, metabolites were extracted with 1 mL ice-cold 80% methanol containing 2 μM deuterated 2-hydroxyglutarate (D-2-hydroxyglutaric-2,3,3,4,4-d5 acid, d5-2HG) as an internal standard. After overnight incubation at −80° C., lysates were harvested and centrifuged at 21,000 g for 20 minutes to remove protein. Extracts were dried in an evaporator (Genevac EZ-2 Elite) and resuspended by incubating at 30° C. for 2 hours in 50 μL of 40 mg/mL methoxyamine hydrochloride in pyridine. Metabolites were further derivatized by addition of 80 μL of MSTFA+1% TCMS (Thermo Scientific) and 70 μl ethyl acetate (Sigma) and then incubated at 37° C. for 30 minutes. Samples were analyzed using an Agilent 7890A GC coupled to Agilent 5977C mass selective detector. The GC was operated in splitless mode with constant helium gas flow at 1 mL/min. 1 μl of derivatized metabolites was injected onto an HP-5MS column and the GC oven temperature ramped from 60° C. to 290° C. over 25 minutes. Peaks representing compounds of interest were extracted and integrated using MassHunter software (Agilent Technologies) and then normalized to both the internal standard (d5-2HG) peak area and protein content of duplicate samples as determined by BCA protein assay (Thermo Scientific). Ions used for quantification of metabolite levels are as follows: d5-2HG m/z 354; αKG, m/z 304; aspartate, m/z 334; citrate, m/z 465; fumarate, m/z 245; glutamate, m/z 363; malate, m/z 335 and succinate, m/z 247. All peaks were manually inspected and verified relative to known spectra for each metabolite.
Isotope tracing studies. For isotope tracing studies, cells were seeded in standard S/L medium in 6-well plates. 24 hours later, cells were washed with PBS and changed into experimental medium containing a 1:1 mix of glutamine-free DMEM and glutamine-free Neurobasal medium including 10% dialyzed FBS, 2-mercaptoethanol, LIF, and 2 mM L-glutamine. […] Enrichment of ^13C was assessed by quantifying the abundance of the following ions: aKG, m/z 304-318; aspartate, m/z 334-346; citrate, m/z 465-482; fumarate, m/z 245-254; glutamate, m/z 363-377 and malate, m/z 335-347. […]

[2] = system: Stat3 target gene Tfcp2l1 and key transcription factors associated with naïve pluripotency; assay: qRT-PCR of STAT3-target genes and other key pluripotency genes; settings: ESCs expressing GCSF-activated LIF receptor; FIG. 5B
Description: RNA was isolated from six-well plates using Trizol (Invitrogen) according to manufacturer instructions. 200 ng RNA was used for cDNA synthesis using iScript (BioRad). Quantitative real-time PCR analysis was performed in technical triplicate using QuantStudio 7 Flex (Applied Biosystems) with Power SYBR Green (Life Technologies). All data were generated using cDNA from triplicate wells for each condition. Actin was used as an endogenous control for all experiments. The following primers were used: […]

ESC self-renewal (Nanog-GFP, colony formation) (ESCs): impaired ESC self-renewal
Molecule: CCOC(=O)CCNc1cc(N2CCc3ccccc3CC2)nc(-c2ccccn2)n1 [GSK-J4]

fraction of TCA cycle metabolites derived from oxidative decarboxylation of glucose-derived pyruvate (m+2 isotopologues) ([1]; [U-13C]glucose, FIG. 1B): increased
fraction of metabolites derived from glutamine catabolism ([1]; [U-13C]glutamine, FIG. 1D): decreased
fraction of glutamate derived from glutamine ([1]; [U-13C]glutamine, control ESCs more than 80%, FIG. 1D): 60%
B1: GCSF: granulocyte colony-stimulating factor, activates the chimeric LIF receptor transgene (protein, UniProt P09919 31-207, looked up)
Granulocyte …: TPLGPASSLPQSFLLKCLEQVRKIQGDGAALQEKLVSECATYKLCHPEELVLLGHSLGIPWAPLSSCPSQALQLAGCLSQLHSGLFLYQGLLQALEGISPELGPTLDTLQLDVADFATTIWQQMEELGMAPALQPTQGAMPAFASAFQRRAGGVLVASHLQSFLEVSYRVLRHLAQP
JAK/STAT3 signaling (phospho-STAT3) (JAK/STAT3 signaling): elevated and sustained JAK/STAT3 signaling
intracellular pools of glutamate when deprived of exogenous glutamine ([1]; [U-13C]glucose, 4 h glutamine withdrawal, FIG. 5C): able to use glucose and other anaplerotic substrates to maintain intracellular pools of glutamate
expression of Tfcp2l1 and naïve pluripotency transcription factors [2]: enhancing expression
